Test system: DDPS
Assay: Enzyme activity of DDPS and inhibition by L-lysine (cell-free extract)
Assay type: biochemical, E. coli
Conditions: for Inhibition of DDPS by L-lysine: various concentrations of L-lysine added, FIG. 2
Description: Mutant pdapA2's were recovered from the 36 strains described above. A dapA-deficient strain, JE7627 was transformed with them and the wild type pdapA2, respectively. A cell-free extract was prepared from each of the transformed strains, and the enzyme activity of DDPS was measured.
The cell-free extract (crude enzyme solution) was prepared as follows. A transformed strain was cultivated in a 2 x TY medium (1.6% Bacto trypton, 1% Yeast extract, 0.5% NaCl), and collected at an optical density at 660 nm (OD660) of about 0.8. A cell pellet was washed with 0.85% NaCl under a condition of 0° C., and suspended in 20 mM potassium phosphate buffer (pH 7.5) containing 400 mM KCl. The cells were disrupted by sonication (0° C., 200 W, 10 minutes). A disrupted cell solution was centrifuged at 33 krpm for 1 hour under a condition of 0° C. to obtain a supernatant to which ammonium sulfate was added to give 80% saturation to be stored at 0° C. overnight followed by centrifugation. A pellet was dissolved in 20 mM potassium phosphate buffer (pH 7.5)-400 mM KCl.
The enzyme activity of DDPS was measured in accordance with a method of Yugari et al. (Yugari, Y. and Gilvarg, C., J. Biol. Chem., 240, 4710 ([…])). Namely, the absorbance of a reaction solution having the following composition was measured at 37° C. with a spectrophotometer at a wavelength of 270 nm in a time-course manner, and generated dihydrodipicolinate was measured. Sodium pyruvate was removed from the reaction system to be used as a blank.
In measurement of the enzyme activity of DDPS, various concentrations of L-lysine were added to the enzyme reaction solutionand the degree of inhibition by L-lysine was examined.

B1: wild type DDPS: wild type dihydrodipicolinate synthase of E. coli, SEQ ID NO:4 (protein)
chain: MFTGSIVAIVTPMDEKGNVCRASLKKLIDYHVASGTSAIVSVGTTGESATLNHDEHADVVMMTLDLADGRIPVIAGTGANATAEAISLTQRFNDSGIVGCLTVTPYYNRPSQEGLYQHFKAIAEHTDLPQILYNVPSRTGCDLLPETVGRLAKVKNIIGIKEATGNLTRVNQIKELVSDDFVLLSGDDASALDFMQLGGHGVISVTTNVAARDMAQMCKLAAEEHFAEARVINQRLMPLHNKLFVEPNPIPVKWACKELGLVATDTLRLPMTPITDSGRETVRAALKHAGLL
**Q.** Which “Inhibition of DDPS by L-lysine” value does the source give for B1 here?
**A.** Its value is “suffered inhibition by L-lysine”.

B2: pdapAS24 (protein)
chain: MFTGSIVAIVTPMDEKGNVCRASLKKLIDYHVASGTSAIVSVGTTGESATLNHDEHADVVMMTLDLADGRIPVIAGTGANATAEAISLTQRFNDSGIVGCLTVTPYYNRPSQEGLYQYFKAIAEHTDLPQILYNVPSRTGCDLLPETVGRLAKVKNIIGIKEATGNLTRVNQIKELVSDDFVLLSGDDASALDFMQLGGHGVISVTTNVAARDMAQMCKLAAEEHFAEARVINQRLMPLHNKLFVEPNPIPVKWACKELGLVATDTLRLPMTPITDSGRETVRAALKHAGLL
**Q.** Which results are given for B2?
**A.** Specific activity of DDPS as compared with the wild type (cell-free extract of JE7627 transformants): lowered a little; Inhibition of DDPS by L-lysine: desensitized

From patent US5989875A, “Method of process for producing L-lysine by fermentation” (priority 1995, dated 1999)
